From paper PMC3954597 (Biochemistry, 2014)
Like-named read-outs stand apart in the source and are kept apart here. Square brackets hold non-standard residues; d marks the D form. pY = N[C@@H](Cc1ccc(OP(=O)(O)O)cc1)C(=O)O

T1: TCPTP (Homo sapiens, UniProt P17706)
T1 sequence (P17706 1-314): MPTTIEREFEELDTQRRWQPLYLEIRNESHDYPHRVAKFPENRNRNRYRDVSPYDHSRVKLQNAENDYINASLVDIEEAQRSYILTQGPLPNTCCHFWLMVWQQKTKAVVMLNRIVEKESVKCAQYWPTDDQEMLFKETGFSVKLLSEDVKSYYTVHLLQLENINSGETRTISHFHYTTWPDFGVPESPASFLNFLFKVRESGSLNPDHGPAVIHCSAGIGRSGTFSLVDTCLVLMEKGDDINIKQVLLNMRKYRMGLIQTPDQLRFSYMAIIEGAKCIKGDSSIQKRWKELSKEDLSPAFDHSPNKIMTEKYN

T2: SHP-2 (Homo sapiens, UniProt Q06124)
T2 sequence (Q06124 199-593): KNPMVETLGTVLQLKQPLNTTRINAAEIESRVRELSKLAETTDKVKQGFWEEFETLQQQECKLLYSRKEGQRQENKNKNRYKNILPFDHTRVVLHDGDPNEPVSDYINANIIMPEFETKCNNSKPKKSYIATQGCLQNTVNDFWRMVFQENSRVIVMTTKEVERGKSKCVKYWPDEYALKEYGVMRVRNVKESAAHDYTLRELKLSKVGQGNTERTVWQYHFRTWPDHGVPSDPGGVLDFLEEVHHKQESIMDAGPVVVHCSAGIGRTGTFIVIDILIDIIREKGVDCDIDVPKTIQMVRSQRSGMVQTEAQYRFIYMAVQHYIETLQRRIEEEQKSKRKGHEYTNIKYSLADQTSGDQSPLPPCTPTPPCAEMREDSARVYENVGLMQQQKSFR

T3: PTP-PEST catalytic domain (aa 5-300), GST fusion (human) (UniProt Q05209)
T3 sequence: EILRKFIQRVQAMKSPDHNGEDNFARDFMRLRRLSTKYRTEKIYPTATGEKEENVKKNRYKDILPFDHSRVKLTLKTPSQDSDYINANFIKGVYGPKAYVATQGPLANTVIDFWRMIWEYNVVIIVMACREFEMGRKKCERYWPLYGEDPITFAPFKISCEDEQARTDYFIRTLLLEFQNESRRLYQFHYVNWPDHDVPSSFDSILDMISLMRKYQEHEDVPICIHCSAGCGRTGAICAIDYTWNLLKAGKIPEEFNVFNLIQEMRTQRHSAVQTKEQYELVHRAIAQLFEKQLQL

T4: HePTP (aa 22-335), GST fusion (human) (UniProt P35236)
T4 sequence: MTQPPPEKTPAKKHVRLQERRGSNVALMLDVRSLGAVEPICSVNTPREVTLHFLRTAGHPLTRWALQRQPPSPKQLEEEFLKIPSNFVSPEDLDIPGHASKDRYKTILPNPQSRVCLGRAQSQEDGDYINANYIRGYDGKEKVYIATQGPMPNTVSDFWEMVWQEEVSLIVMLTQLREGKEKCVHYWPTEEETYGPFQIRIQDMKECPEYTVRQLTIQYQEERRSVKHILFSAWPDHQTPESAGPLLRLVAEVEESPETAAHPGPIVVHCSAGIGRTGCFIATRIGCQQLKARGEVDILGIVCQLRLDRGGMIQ

T5: R47E PTP1B catalytic domain (amino acids 1-321) (human) (UniProt P18031)
T5 sequence: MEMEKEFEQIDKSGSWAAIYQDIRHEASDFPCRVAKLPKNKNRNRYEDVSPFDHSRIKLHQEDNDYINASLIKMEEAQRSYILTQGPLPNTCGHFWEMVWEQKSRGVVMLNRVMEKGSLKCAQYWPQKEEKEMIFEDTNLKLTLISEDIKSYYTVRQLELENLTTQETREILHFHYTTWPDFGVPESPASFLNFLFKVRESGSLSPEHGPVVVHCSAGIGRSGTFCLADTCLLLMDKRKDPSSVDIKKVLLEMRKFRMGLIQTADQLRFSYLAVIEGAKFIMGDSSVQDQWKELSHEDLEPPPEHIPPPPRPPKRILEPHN

T6: wild-type PTP1B catalytic domain (amino acids 1-321) (human) (UniProt P18031)
T6 sequence: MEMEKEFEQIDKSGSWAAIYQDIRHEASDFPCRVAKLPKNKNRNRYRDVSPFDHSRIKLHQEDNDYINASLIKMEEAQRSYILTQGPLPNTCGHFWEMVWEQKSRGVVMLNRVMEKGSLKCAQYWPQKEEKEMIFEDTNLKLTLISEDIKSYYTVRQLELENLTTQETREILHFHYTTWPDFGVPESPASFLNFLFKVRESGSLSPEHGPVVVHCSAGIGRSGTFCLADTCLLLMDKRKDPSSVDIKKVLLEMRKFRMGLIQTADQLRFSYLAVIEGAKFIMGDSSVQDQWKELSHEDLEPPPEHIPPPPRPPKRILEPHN

T7: R24M PTP1B catalytic domain (amino acids 1-321) (human) (UniProt P18031)
T7 sequence: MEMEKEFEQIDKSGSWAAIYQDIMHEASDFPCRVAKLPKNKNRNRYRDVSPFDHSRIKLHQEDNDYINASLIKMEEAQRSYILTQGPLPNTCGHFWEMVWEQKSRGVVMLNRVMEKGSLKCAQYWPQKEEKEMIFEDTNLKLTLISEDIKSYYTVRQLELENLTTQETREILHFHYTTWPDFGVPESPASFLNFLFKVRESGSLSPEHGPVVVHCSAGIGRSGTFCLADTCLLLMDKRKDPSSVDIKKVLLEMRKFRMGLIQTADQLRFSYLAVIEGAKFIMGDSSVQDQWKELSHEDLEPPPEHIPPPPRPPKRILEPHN


What was measured:
HePTP = conditions: cited from earlier work
TCPTP = target: T1, TCPTP; experiment: PTP assay, TCPTP; type: biochemical; conditions: catalytic domain; 100 mM HEPES pH 7.4; monitored at 282 nm
SHP-1 = SHP-1 (Homo sapiens, UniProt P29350); conditions: catalytic domain; cited from earlier work
SHP-1, sequence (P29350 205-595): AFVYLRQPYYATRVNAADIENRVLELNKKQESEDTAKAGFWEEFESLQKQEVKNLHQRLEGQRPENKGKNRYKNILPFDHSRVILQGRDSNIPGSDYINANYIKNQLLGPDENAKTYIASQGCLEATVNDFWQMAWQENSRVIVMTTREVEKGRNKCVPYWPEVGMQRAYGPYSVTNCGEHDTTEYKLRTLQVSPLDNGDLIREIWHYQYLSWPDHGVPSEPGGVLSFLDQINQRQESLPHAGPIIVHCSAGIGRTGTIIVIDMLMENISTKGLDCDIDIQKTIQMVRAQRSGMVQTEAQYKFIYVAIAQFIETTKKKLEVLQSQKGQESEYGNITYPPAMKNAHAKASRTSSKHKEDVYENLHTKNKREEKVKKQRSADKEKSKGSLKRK

SHP-2 = target: T2, SHP-2; conditions: catalytic domain; cited from earlier work
[1] = target: T3, PTP-PEST catalytic domain (aa 5-300), GST fusion (human)
[2] = target: T4, HePTP (aa 22-335), GST fusion (human)
[3] = target: T5, R47E PTP1B catalytic domain (amino acids 1-321) (human)
[4] = target: T6, wild-type PTP1B catalytic domain (amino acids 1-321) (human)
[5] = target: T7, R24M PTP1B catalytic domain (amino acids 1-321) (human)
[6] = target: T6, wild-type PTP1B catalytic domain (amino acids 1-321) (human); remark: listed apart in the source

Row | Molecule | KM, steady-state dephosphorylation of the pY peptide [3] [µM] | KM, steady-state dephosphorylation of the pY peptide [4] [µM] | KM, steady-state dephosphorylation of the pY peptide [5] [µM] | other results
1 | DHTGFLpTEpY^187VATRW [reference compound] | – | – | – | kcat/KM (HePTP): 4800 M⁻¹ s⁻¹
2 | phospho-ERK2 protein: phosphorylated ERK2 protein, HePTP substrate recruited via KIM domain | – | – | – | rate of dephosphorylation at the same site (pY187) (HePTP): 2.6 × 10^6 M^−1 s^−1
3 | WDEDFpYDWEF | – | – | – | Km (TCPTP): 0.31 ± 0.01 µM; kcat (TCPTP): 9.0 ± 0.4 s⁻¹; kcat/KM x10^6 (TCPTP): 29 x10^6 M^−1 s^−1; Km (SHP-1): 3.2 ± 0.3 µM; kcat (SHP-1): 75 ± 2 ^c s^−1; kcat/KM x10^6 (SHP-1): 23 ^c x10^6 M^−1 s^−1; Km (SHP-2): 6.3 ± 0.4 µM; kcat (SHP-2): 43 ± 1 ^c s^−1; kcat/KM x10^6 (SHP-2): 6.8 ^c x10^6 M^−1 s^−1
4 | Ac-SASAS[pY]SASA-NH2 (SMILES CC(=O)N[C@@H](CO)C(=O)N[C@@H](C)C(=O)N[C@@H](CO)C(=O)N[C@@H](C)C(=O)N[C@@H](CO)C(=O)N[C@@H](Cc1ccc(OP(=O)(O)O)cc1)C(=O)N[C@@H](CO)C(=O)N[C@@H](C)C(=O)N[C@@H](CO)C(=O)N[C@@H](C)C(N)=O) [Ac-SASASpYSASA-NH2 (neutral)] | – | – | – | KM, steady-state dephosphorylation of the pY peptide [1]: 800 µM
5 | Ac-YDEDF[pY]DYEF-NH2 (SMILES CC(=O)N[C@@H](Cc1ccc(O)cc1)C(=O)N[C@@H](CC(=O)O)C(=O)N[C@@H](CCC(=O)O)C(=O)N[C@@H](CC(=O)O)C(=O)N[C@@H](Cc1ccccc1)C(=O)N[C@@H](Cc1ccc(OP(=O)(O)O)cc1)C(=O)N[C@@H](CC(=O)O)C(=O)N[C@@H](Cc1ccc(O)cc1)C(=O)N[C@@H](CCC(=O)O)C(=O)N[C@@H](Cc1ccccc1)C(N)=O) [Ac-YDEDFpYDYEF-NH2 (acidic)] | – | – | – | KM, steady-state dephosphorylation of the pY peptide [2]: 280 µM; KM, steady-state dephosphorylation of the pY peptide [1]: 2.2 µM
6 | Ac-ASSDE[pY]AA-NH2 (SMILES CC(=O)N[C@@H](C)C(=O)N[C@@H](CO)C(=O)N[C@@H](CO)C(=O)N[C@@H](CC(=O)O)C(=O)N[C@@H](CCC(=O)O)C(=O)N[C@@H](Cc1ccc(OP(=O)(O)O)cc1)C(=O)N[C@@H](C)C(=O)N[C@@H](C)C(N)=O) [Ac-ASSDEpYAA-NH2] | 32 | 1.8 | 3.8 | KM, steady-state dephosphorylation of the pY peptide [6]: 1.9 µM
7 | Ac-AA[pY]DDIDE-NH2 (SMILES CC[C@H](C)[C@H](NC(=O)[C@H](CC(=O)O)NC(=O)[C@H](CC(=O)O)NC(=O)[C@H](Cc1ccc(OP(=O)(O)O)cc1)NC(=O)[C@H](C)NC(=O)[C@H](C)NC(C)=O)C(=O)N[C@@H](CC(=O)O)C(=O)N[C@@H](CCC(=O)O)C(N)=O) [Ac-AApYDDIDE-NH2] | 56 | 3.5 | 37 | –
8 | Ac-YRKRF[pY]RYKF-NH2 (SMILES CC(=O)N[C@@H](Cc1ccc(O)cc1)C(=O)N[C@@H](CCCNC(=N)N)C(=O)N[C@@H](CCCCN)C(=O)N[C@@H](CCCNC(=N)N)C(=O)N[C@@H](Cc1ccccc1)C(=O)N[C@@H](Cc1ccc(OP(=O)(O)O)cc1)C(=O)N[C@@H](CCCNC(=N)N)C(=O)N[C@@H](Cc1ccc(O)cc1)C(=O)N[C@@H](CCCCN)C(=O)N[C@@H](Cc1ccccc1)C(N)=O) [Ac-YRKRFpYRYKF-NH2 (basic)] | – | – | – | kcat/KM, steady-state dephosphorylation of the pY peptide (KM not given) [1]: 1500 M⁻¹ s⁻¹
9 | Ac-AA[pY]ADDAA-NH2 (SMILES CC(=O)N[C@@H](C)C(=O)N[C@@H](C)C(=O)N[C@@H](Cc1ccc(OP(=O)(O)O)cc1)C(=O)N[C@@H](C)C(=O)N[C@@H](CC(=O)O)C(=O)N[C@@H](CC(=O)O)C(=O)N[C@@H](C)C(=O)N[C@@H](C)C(N)=O) [Ac-AApYADDAA-NH2] | 12 | 2.2 | 6.4 | –
10 | Ac-AA[pY]AADDA-NH2 (SMILES CC(=O)N[C@@H](C)C(=O)N[C@@H](C)C(=O)N[C@@H](Cc1ccc(OP(=O)(O)O)cc1)C(=O)N[C@@H](C)C(=O)N[C@@H](C)C(=O)N[C@@H](CC(=O)O)C(=O)N[C@@H](CC(=O)O)C(=O)N[C@@H](C)C(N)=O) [Ac-AApYAADDA-NH2] | 11 | 2.6 | 6.9 | –
11 | Ac-EEDNAW[pY]AA-NH2 (SMILES CC(=O)N[C@@H](CCC(=O)O)C(=O)N[C@@H](CCC(=O)O)C(=O)N[C@@H](CC(=O)O)C(=O)N[C@@H](CC(N)=O)C(=O)N[C@@H](C)C(=O)N[C@@H](Cc1c[nH]c2ccccc12)C(=O)N[C@@H](Cc1ccc(OP(=O)(O)O)cc1)C(=O)N[C@@H](C)C(=O)N[C@@H](C)C(N)=O) [Ac-EEDNAWpYAA-NH2] | 9.5 | 1.3 | 1.9 | –
12 | Ac-DPRGI[pY]DQVAG-NH2 (SMILES CC[C@H](C)[C@H](NC(=O)CNC(=O)[C@H](CCCNC(=N)N)NC(=O)[C@@H]1CCCN1C(=O)[C@H](CC(=O)O)NC(C)=O)C(=O)N[C@@H](Cc1ccc(OP(=O)(O)O)cc1)C(=O)N[C@@H](CC(=O)O)C(=O)N[C@@H](CCC(N)=O)C(=O)N[C@H](C(=O)N[C@@H](C)C(=O)NCC(N)=O)C(C)C) [nephrin pY1217 peptide Ac-DPRGIpYDQVAG-NH2] | 23 | 7.1 | 71 | –
13 | Ac-AA[pY]AAADD-NH2 (SMILES CC(=O)N[C@@H](C)C(=O)N[C@@H](C)C(=O)N[C@@H](Cc1ccc(OP(=O)(O)O)cc1)C(=O)N[C@@H](C)C(=O)N[C@@H](C)C(=O)N[C@@H](C)C(=O)N[C@@H](CC(=O)O)C(=O)N[C@@H](CC(=O)O)C(N)=O) [Ac-AApYAAADD-NH2] | 10 | 3 | 8.7 | –
